Here are results for one molecule from patent US20260056186A1 (JIANGSU HENGRUI PHARMACEUTICALS, published 2026).

Assay [1] has as its target T1, recombinant human APRIL (R&D cat: 5860-AP-010/CF) (human, UniProt O75888 105-250, limits assumed).
T1 sequence (looked up): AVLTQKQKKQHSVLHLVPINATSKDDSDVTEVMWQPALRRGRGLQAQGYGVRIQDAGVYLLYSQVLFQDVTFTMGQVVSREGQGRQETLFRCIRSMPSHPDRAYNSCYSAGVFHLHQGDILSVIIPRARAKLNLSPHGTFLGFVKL
Put plainly: cell-based or functional assay.

The target in assay [2] is BAFF (PeproTech, Cat: 310-13) (UniProt Q9Y275 134-285). Put plainly: ELISA, BAFF coated at 1 ug/mL, anti-human Fc-HRP, OD450. As for the experimental part: (§1) The capabilities of TACI-BCMA fusion proteins (B575701, B575702, B575703, and B575704) to bind to BAFF and APRIL were assessed by ELISA as follows: BAFF (PeproTech, Cat: 310-13) or ARPIL (Acro Biosystems, Cat: APL-H52D1) was diluted to 1 μg/mL with PBS, and a 96-well plate (Costar, Cat: 3590) was coated with the dilution overnight at 4° C. The plate was washed with PBST and blocked with Blocking Buffer (PBST containing 1% BSA) at 37° C. for 1 h. The plate was tapped. The test antibodies were diluted with Blocking Buffer. Incubation was performed at 37° C. for 1.5 h. The plate was washed with PBST. An HRP-mouse anti-human Fc antibody (GenScript, Cat: A01854-200) was diluted with Blocking Buffer. Incubation was performed at 37° C. for 40 min. The plate was washed with PBST. 100 μL of TMB substrate solution (Biopanda, Cat: TMB-S-003) was added, and color development was performed at 37° C. for 3 min. 100 μL of ELISA stop solution (Solarbio, Cat: C1058) was added. OD450 was measured.
The capability of B575702 to bind to BAFF was consistent with that of B575704, and their EC₅₀ values decreased to ¼ of that of telitacicept. The capability of B575701 to bind to BAFF was consistent with that of B575703, and their EC₅₀ values decreased to ½ of that of telitacicept.

The target in assay [3] is T2, APRIL (Acro Biosystems, Cat: APL-H52D1) (UniProt O75888 115-250, limits assumed).
T2 construct: also called ARPIL
T2 sequence (looked up): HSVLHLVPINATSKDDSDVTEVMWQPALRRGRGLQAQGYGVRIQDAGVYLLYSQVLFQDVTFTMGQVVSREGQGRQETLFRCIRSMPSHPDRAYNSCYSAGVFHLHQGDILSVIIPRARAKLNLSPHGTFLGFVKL
Description: ELISA, APRIL coated at 1 ug/mL, anti-human Fc-HRP, OD450. As to the method:
as §1
The capabilities of the 4 fusion proteins to bind to APRIL were all stronger than that of telitacicept, and their EC₅₀ values decreased to ¼ to ⅓ of that of telitacicept.

Assay [4] concerns the target T2, APRIL (Acro Biosystems, Cat: APL-H52D1). Described as above. As to the method: as §1, with “B613301, B613302, and B613303, which are” for “TACI-BCMA”, “of anifrolumab” for “(B575701, B575702, B575703,”, “TACI-BCMA,” for “B575704)”, “follows: [0548]” for “follows:”
The source holds these as a separate data set.

The target is the same in assay [5]. The assay is described as above. This is another data set of the same source.

Where two headings read alike, the source gives them in different places.

Chain of BAFF (PeproTech, Cat: 310-13) (Q9Y275 134-285 limits assumed): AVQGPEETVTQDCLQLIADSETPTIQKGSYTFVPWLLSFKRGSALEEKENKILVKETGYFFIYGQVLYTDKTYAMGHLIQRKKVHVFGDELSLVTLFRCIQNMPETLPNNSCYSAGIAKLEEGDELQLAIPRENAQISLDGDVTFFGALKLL

B1: Telitacicept (RCT-18) (Fc fusion)
chain: SRVDQEERFPQGLWTGVAMRSCPEEQYWDPLLGTCMSCKTICNHQSQRTCAAFCRSLSCRKEQGKFYDHLLRDCISCASICGQHPKQCAYFCENKLRSPVNLPPELDKTHTCPPCPAPEAEGAPSVFLFPPKPKDTLMISRTPEVTCVVVDVSHEDPEVKFNWYVDGVEVHNAKTKPREEQYNSTYRVVSVLTVLHQDWLNGKEYKCKVSNKALPSSIEKTISKAKGQPREPQVYTLPPSRDELTKNQVSLTCLVKGFYPSDIAVEWESNGQPENNYKTTPPVLDSDGSFFLYSKLTVDKSRWQQGNVFSCSVMHEALHNHYTQKSLSLSPGK
notes: Positive control TACI-Fc; also called RC18
As usually defined, the EC50 is the midpoint of the concentration-response curve. As to B1, in assay [1], the “Flow cytometry proliferating B cell proportion (%), mean value, APRIL-induced, drug at 4.12 nM (IgG1: 55.30)” value was found to be 48.1%; the “Flow cytometry proliferating B cell proportion (%), mean value, APRIL-induced, drug at 12.35 nM (IgG1: 54.80)” value amounted to 49.2%; the “Flow cytometry proliferating B cell proportion (%), mean value, APRIL-induced, drug at 37.04 nM (IgG1: 56.63)” value turned out to be 50.1%; the “Flow cytometry proliferating B cell proportion (%), mean value, APRIL-induced, drug at 111.11 nM (IgG1: 55.83)” value worked out at 50.3%. Further, in assay [1], the “Flow cytometry proliferating B cell proportion (%), mean value, APRIL-induced, drug at 333.33 nM (IgG1: 56.27)” value was determined as 49.1% and the “Flow cytometry proliferating B cell proportion (%), mean value, APRIL-induced, drug at 1000.00 nM (IgG1: 53.27)” value stood at 46.3%. In assay [2], a half-maximal response (EC50) required 0.713 nM and the Emax is 2.28 nM (as printed). In assay [3], this molecule showed an EC50 of 0.711 nM and an Emax of 2.62. Further, in assay [4], the EC50 was determined as 1.25 nM and the Emax was 2.5. In assay [5], this molecule displayed an EC50 of 0.536 nM and an Emax of 2.98.
